The values below come from paper PMC9536601.

Test [1] addresses chimeric hexon of the Ad5 vector Ad5:H6.1 (Ad5 hexon with residues 112-593 from Ad6 hexon, on virions) (human adenovirus 5 | human adenovirus 6) (UniProt P04133). Description: SPR; Biacore T200; about 300 to 5,000 RU of Ad virions immobilised on a CM5 chip, coagulation factors flowed over at four concentrations, 50 uL/min; running buffer 10 mM HEPES, 150 mM NaCl, 1 mM CaCl2, 0.5 mM MgCl2, 0.1% BSA, 0.05% polysorbate 20, pH 7.4; regeneration with 3 mM EDTA; global fit to a 1:1 kinetic interaction model, double referencing.

The target in test [2] is chimeric hexon of the Ad5 vector Ad5:H6.3 (Ad6 hexon section with HVR7 mutations, on virions) (human adenovirus 5 | human adenovirus 6) (UniProt P04133). The test is described as above.
In test [3] the target is chimeric hexon of the Ad5 vector Ad5:H6.2 (Ad6 hexon section with HVR7 mutations, on virions) (human adenovirus 5 | human adenovirus 6) (UniProt P04133). The description is as above.
Test [4] concerns the target chimeric hexon of the Ad5 vector Ad5:H57.1 (Ad5 hexon with residues 112-593 from Ad57 hexon, on virions) (human adenovirus 5 | human adenovirus 57) (UniProt P04133). The test is described as above.
For test [5], the target named is hexon of wild-type human adenovirus type 1 (on virions) (human adenovirus 1). The description is as above.
Test [6] has as its target chimeric hexon of the Ad5 vector Ad5:H1.1 (Ad5 hexon with residues 112-593 from Ad1 hexon, on virions) (human adenovirus 5 | human adenovirus 1) (UniProt P04133). The description is as above.
For test [7], the target named is chimeric hexon of Ad5:H6.3 (Ad5 vector, hexon residues 112-593 from Ad6 hexon, HVR7 IGNTETF), on the virion (human adenovirus type 5 | human adenovirus type 6) (UniProt P04133). Description: SPR; Biacore T200; about 300 to 5,000 RU of Ad virions immobilised on a CM5 chip, coagulation factors flowed over at four concentrations, 50 uL/min; 10 mM HEPES, 150 mM NaCl, 1 mM CaCl2, 0.5 mM MgCl2, 0.1% BSA, 0.05% polysorbate 20, pH 7.4; global fit to a 1:1 kinetic interaction model, double referencing.

Test [8] concerns the target chimeric hexon of Ad5:H57.1 (Ad5 vector, hexon residues 112-593 from Ad57 hexon), on the virion (human adenovirus type 5 | human adenovirus type 57) (UniProt P04133). The description is as above.
The target in test [9] is chimeric hexon of Ad5:H6.1 (Ad5 vector, hexon residues 112-593 from Ad6 hexon), on the virion (human adenovirus type 5 | human adenovirus type 6) (UniProt P04133). The test is described as above.
Test [10] addresses chimeric hexon of Ad5:H1.1 (Ad5 vector, hexon residues 112-593 from Ad1 hexon), on the virion (human adenovirus type 5 | human adenovirus type 1) (UniProt P04133). The test is described as above.
Test [11] concerns the target chimeric hexon of Ad5:H6.2 (Ad5 vector, hexon residues 112-593 from Ad6 hexon, HVR7 IGNTDTF), on the virion (human adenovirus type 5 | human adenovirus type 6) (UniProt P04133). The test is described as above.

pKd: −log10 of the molar value.

In the case of “bovine prothrombin (coagulation factor II) (from UniProt P00735 44-625) (natural protein)”, the pKd in test [1] was 7.17; in [2] it was 5.60; in test [3], 6.02; in [4], 7.57; in [5], 7.43; in test [6] it was 7.47. Besides, the pKd is 5.60 in test [7]; 7.57 in test [8]; 7.17 in test [9]; 7.47 in test [10]; 6.02 in test [11]. Moreover, the koff in [1] came out at 0.0039 s⁻¹; in test [2], 0.0729 s⁻¹; in test [3], 0.0291 s⁻¹; in test [4] it was 0.000993 s⁻¹; in [5] it was 0.00193 s⁻¹; in test [6] it was 0.00224 s⁻¹. Besides, the kon amounted to 58200 M⁻¹ s⁻¹ in test [1]; 29200 M⁻¹ s⁻¹ in [2]; 30500 M⁻¹ s⁻¹ in test [3]; 37400 M⁻¹ s⁻¹ in test [4]; 52800 M⁻¹ s⁻¹ in [5]; 65800 M⁻¹ s⁻¹ in test [6].
